Patent US20220251152A1, “COMPOSITIONS AND METHODS FOR SELECTIVE PROTEIN DEGRADATION” (Novartis AG, priority 2019, published 2022)
Changes are numbered by the printed parent chain.

B1: construct 773: modified signal peptide, the HilD tag, a furin cleavage site, and CAR19 (protein)
chain: MALPVTALLLPLALLLHAARPRSSLAHKRSHTGERPFQCNQCGASFTQKGNLLRHIKLHTGEKPFKCHLCNTASAEARHIKAEMGGTGAEDPRPSRKRRSLGDVGEIVMTQSPATLSLSPGERATLSCRASQDISKYLNWYQQKPGQAPRLLIYHTSRLHSGIPARFSGSGSGTDYTLTISSLQPEDFAVYFCQQGNTLPYTFGQGTKLEIKGGGGSGGGGSGGGGSQVQLQESGPGLVKPSETLSLTCTVSGVSLPDYGVSWIRQPPGKGLEWIGVIWGSETTYYQSSLKSRVTISKDNSKNQVSLKLSSVTAADTAVYYCAKHYYYGGSYAMDYWGQGTLVTVSSTTTPAPRPPTPAPTIASQPLSLRPEACRPAAGGAVHTRGLDFACDIYIWAPLAGTCGVLLLSLVITLYCKRGRKKLLYIFKQPFMRPVQTTQEEDGCSCRFPEEEEGGCELRVKFSRSADAPAYQQGQNQLYNELNLGRREEYDVLDKRRGRDPEMGGKPRRKNPQEGLYNELQKDKMAEAYSEIGMKGERRRGKGHDGLYQGLSTATKDTYDALHMQALPPR
B2: construct 771: signal peptide, CAR19, the HilD tag, and a V5 (protein)
chain: MALPVTALLLPLALLLHAARPEIVMTQSPATLSLSPGERATLSCRASQDISKYLNWYQQKPGQAPRLLIYHTSRLHSGIPARFSGSGSGTDYTLTISSLQPEDFAVYFCQQGNTLPYTFGQGTKLEIKGGGGSGGGGSGGGGSQVQLQESGPGLVKPSETLSLTCTVSGVSLPDYGVSWIRQPPGKGLEWIGVIWGSETTYYQSSLKSRVTISKDNSKNQVSLKLSSVTAADTAVYYCAKHYYYGGSYAMDYWGQGTLVTVSSTTTPAPRPPTPAPTIASQPLSLRPEACRPAAGGAVHTRGLDFACDIYIWAPLAGTCGVLLLSLVITLYCKRGRKKLLYIFKQPFMRPVQTTQEEDGCSCRFPEEEEGGCELRVKFSRSADAPAYQQGQNQLYNELNLGRREEYDVLDKRRGRDPEMGGKPRRKNPQEGLYNELQKDKMAEAYSEIGMKGERRRGKGHDGLYQGLSTATKDTYDALHMQALPPRMHKRSHTGERPFQCNQCGASFTQKGNLLRHIKLHTGEKPFKCHLCNTASAEARHIKAEMGGKPIPNPLLGLDST
B3: construct 769: signal peptide, CAR19, a 16GS linker, and the HilD tag (protein)
chain: EIVMTQSPATLSLSPGERATLSCRASQDISKYLNWYQQKPGQAPRLLIYHTSRLHSGIPARFSGSGSGTDYTLTISSLQPEDFAVYFCQQGNTLPYTFGQGTKLEIKGGGGSGGGGSGGGGSQVQLQESGPGLVKPSETLSLTCTVSGVSLPDYGVSWIRQPPGKGLEWIGVIWGSETTYYQSSLKSRVTISKDNSKNQVSLKLSSVTAADTAVYYCAKHYYYGGSYAMDYWGQGTLVTVSSTTTPAPRPPTPAPTIASQPLSLRPEACRPAAGGAVHTRGLDFACDIYIWAPLAGTCGVLLLSLVITLYCKRGRKKLLYIFKQPFMRPVQTTQEEDGCSCRFPEEEEGGCELRVKFSRSADAPAYQQGQNQLYNELNLGRREEYDVLDKRRGRDPEMGGKPRRKNPQEGLYNELQKDKMAEAYSEIGMKGERRRGKGHDGLYQGLSTATKDTYDALHMQALPPRGGGGSGGGGTGGGGSGMHKRSHTGERPFQCNQCGASFTQKGNLLRHIKLHTGEKPFKCHLCNTASAEARHIKAEMG
B4: construct 6761: signal peptide, CAR19, a 16KGS linker, the HilD tag, and a V5 (protein)
chain: MALPVTALLLPLALLLHAARPEIVMTQSPATLSLSPGERATLSCRASQDISKYLNWYQQKPGQAPRLLIYHTSRLHSGIPARFSGSGSGTDYTLTISSLQPEDFAVYFCQQGNTLPYTFGQGTKLEIKGGGGSGGGGSGGGGSQVQLQESGPGLVKPSETLSLTCTVSGVSLPDYGVSWIRQPPGKGLEWIGVIWGSETTYYQSSLKSRVTISKDNSKNQVSLKLSSVTAADTAVYYCAKHYYYGGSYAMDYWGQGTLVTVSSTTTPAPRPPTPAPTIASQPLSLRPEACRPAAGGAVHTRGLDFACDIYIWAPLAGTCGVLLLSLVITLYCKRGRKKLLYIFKQPFMRPVQTTQEEDGCSCRFPEEEEGGCELRVKFSRSADAPAYQQGQNQLYNELNLGRREEYDVLDKRRGRDPEMGGKPRRKNPQEGLYNELQKDKMAEAYSEIGMKGERRRGKGHDGLYQGLSTATKDTYDALHMQALPPRKGGGSKGGGTKGGGSKMHKRSHTGERPFQCNQCGASFTQKGNLLRHIKLHTGEKPFKCHLCNTASAEARHIKAEMGGKPIPNPLLGLDST
B5: construct 768: signal peptide, CAR19, a 16GS linker, the HilD tag, and a V5 (protein)
chain: B4 chain with K487G, K492G, K497G, K502G
B6: construct 774: signal peptide, the HilD tag, a furin cleavage site, and CAR19 (protein)
chain: MALPVTALLLPLALLLHAARPHKRSHTGERPFQCNQCGASFTQKGNLLRHIKLHTGEKPFKCHLCNTASAEARHIKAEMGGTGAEDPRPSRKRRSLGDVGEIVMTQSPATLSLSPGERATLSCRASQDISKYLNWYQQKPGQAPRLLIYHTSRLHSGIPARFSGSGSGTDYTLTISSLQPEDFAVYFCQQGNTLPYTFGQGTKLEIKGGGGSGGGGSGGGGSQVQLQESGPGLVKPSETLSLTCTVSGVSLPDYGVSWIRQPPGKGLEWIGVIWGSETTYYQSSLKSRVTISKDNSKNQVSLKLSSVTAADTAVYYCAKHYYYGGSYAMDYWGQGTLVTVSSTTTPAPRPPTPAPTIASQPLSLRPEACRPAAGGAVHTRGLDFACDIYIWAPLAGTCGVLLLSLVITLYCKRGRKKLLYIFKQPFMRPVQTTQEEDGCSCRFPEEEEGGCELRVKFSRSADAPAYQQGQNQLYNELNLGRREEYDVLDKRRGRDPEMGGKPRRKNPQEGLYNELQKDKMAEAYSEIGMKGERRRGKGHDGLYQGLSTATKDTYDALHMQALPPR
B7: 773 (protein)
chain: B1 chain
B8: 771 (protein)
chain: B2 chain
B9: 774 (protein)
chain: B6 chain

What follows are molecules tested on CAR19 fused to HilD tag and/or FurON (assay: Flow cytometry of surface CAR expression on JNL cells, 10 μM lenalidomide and/or bazedoxifene 24 hours). Details: 10 μM lenalidomide for 24 hours.
Assay type: cell-based, human
From the text: Next, the surface expression of CAR19 on stably transduced JNL cells was examined by flow cytometry. […] On Day 2, cells were harvested, stained using biotinylated-protein L (Genscript, M00097) followed by PE conjugated streptavidin (Jackson Lab, 016-110-084), and subjected to flow cytometry analysis using Fortessa instrument.
With B1 the “effect of lenalidomide on surface CAR expression of the construct” value (shortened to “effect of lenalidomide … of the construct”) was “did not impact surface CAR expression”.
For B2, the “effect of lenalidomide … of the construct” value was “significantly reduced surface CAR expression”.
B3 was tested, and the “effect of lenalidomide … of the construct” value was “significantly reduced surface CAR expression”.
B4 was tested, and the “effect of lenalidomide … of the construct” value was “significantly reduced surface CAR expression”.
With B5 the “effect of lenalidomide … of the construct” value was “significantly reduced surface CAR expression”.
In the case of B6, the “effect of lenalidomide … of the construct” value is reported as “did not impact surface CAR expression”.

Same assay, conditions: surface CAR on transduced JNL cells, 10 μM lenalidomide, 24 hours
With B7 the “% reduction in CAR expression” value was 4% and the Effect of lenalidomide was “No”.
For B8, the “% reduction in CAR expression” value was 87% and the Effect of lenalidomide was “Yes”.
For B9, the “% reduction in CAR expression” value was 5% and the Effect of lenalidomide was “No”.

Same assay, conditions: surface CAR on transduced JNL cells, flow cytometry; FurON constructs only in presence of bazedoxifene
B7 was tested, and the “CAR Expression” value was “Yes”.
In the case of B8, the “CAR Expression” value is reported as “Yes”.
In the case of B9, the “CAR Expression” value is reported as “Yes”.
